From US20110059060A1 come the findings set out here.

The target in the experiment is thuricin CD (Bacillus thuringiensis DPC 6431).

Substance trypsin (enzyme) gave an antimicrobial activity after enzyme treatment (well diffusion assay, C. difficile ATCC 43593) (% reduction in activity) of 20.

The substance pepsin (enzyme) had an antimicrobial activity after enzyme treatment (well diffusion assay, C. difficile ATCC 43593) (% reduction in activity) of 50.
